Experimental data taken from the nanobody polyreactivity screen of Harvey et al. (2022).

Experiment: yeast display, Sf9 membrane polyspecificity reagent, FACS + sequencing; frameworks hold sequencing errors
Outline: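 Sorting gates, low and high (top ~1%), were placed on anti-HA fluorescence to track expression and on streptavidin fluorescence to track reagent binding. A clone's polyreactivity label is taken from the gate it came out of. The reagent was 10% biotinylated, detergent-solubilized Sf9 membrane, applied for 1 hour at 4 °C to galactose-induced yeast display cells.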
With “QVQLVESGGGLVQAGGSLRLSCAASGIIFRRYAMGWYRQAPGKERELVAAITRGGITYYADSVKGRFTISRDNAKNTVYLQMNSLKPEDTAVYYCAATYSGTYSLGRGYDYWGQGTQVTVSS” the “polyreactivity (PSR sort gate)” value was “low polyreactivity”.
For “QVQLVESGGGLVQAGGSLRLSCAASGIIFRRYAMGWYRQAPGKERELVAVISSGGSTNYADSVKGRFTISRDNAKNTVYLQMYSLKPEDTADYYCAAPSQSRGYYYWGQGTQVTVSS”, the “polyreactivity (PSR sort gate)” value was “high polyreactivity”.
In the case of “QVQLVESGGGLVQAGGSLRLSCAASGIIFRTYAMGCYRQAPGKERELVAAITGSGGITYYADSVKGRFTISRDNAKNTVYLQMNSLKPEDTAVYYCAARGTRDGVQRYGYWGQGTQVTVSS”, the “polyreactivity (PSR sort gate)” value was “high polyreactivity”.
With “QVQLVESGGGLVQAGGSLRLSCAASGIIFRTYAMGWYRQAPGKERELVAAITGRGSNTYYADSVKGRFTISRDNAKNTVYLQMNSLKPEETAVYYCNARYYDYRVALRYDYWGQGTQVTVSS” the “polyreactivity (PSR sort gate)” value was “high polyreactivity”.
In the case of “QVQLVESGGGLVQAGGSLRLSCAASGIIFRVYTMGWYRQAPGKERELVAGLSSGDSTSYADSVKGRFTISRDNAKNTVYLQMNSLKPEDTAVYYCNAVAYYSYSANFRNAYDYWGQGTQVTVSS”, the “polyreactivity (PSR sort gate)” value was “low polyreactivity”.
For “QVQLVESGGGLVQAGGSLRLSCAASGIIFRYNAMGWSRQAPGKERELVATISKRGGSTRYADSVKGRFTISRDNAKNTVYLQMNSLKPEDTAVYYCAAQRPYYNGYDYWGQGTQVTVSS”, the “polyreactivity (PSR sort gate)” value was “high polyreactivity”.
With “QVQLVESGGGLVQAGGSLRLSCAASGIIFRYNTMGWYRQAPGKERELVAAISKRGGSTYYADSVKGRFTISRDNAKNTVYLQMNSLKPEDTAVYYCAARYYSASYYNYGYWGQGTQVTVSS” the “polyreactivity (PSR sort gate)” value was “high polyreactivity”.
For “QVQLVESGGGLVQAGGSLRLSCAASGIIFRYYAMGLYRQAPGKERELVAAISQGGGSTYYADSVKGRFTISRDNAKYTVYLPMKTLKPEDTAVYYCNTGRRHGLTQGGDYWGQGTQVTVSS”, the “polyreactivity (PSR sort gate)” value was “high polyreactivity”.
For “QVQLVESGGGLVQAGGSLRLSCAASGIIFRYYAMGWYRQAPGKEREFVAAISSSGVRTYYADSVKGRFTISRDNAKNTVYLQMNSLKPEDTAVYYCAAASRANSYRYNYWGQGTQVTVSS”, the “polyreactivity (PSR sort gate)” value was “high polyreactivity”.
With “QVQLVESGGGLVQAGGSLRLSCAASGIIFRYYAMGWYRQAPGKEREFVAAITWRGTSTYYADSVKGRFTISRDNAKNTVYLQMNSLKPEDTAVYYCATATAFPYYGLDYWGQGNQVTVSS” the “polyreactivity (PSR sort gate)” value was “high polyreactivity”.
In the case of “QVQLVESGGGLVQAGGSLRLSCAASGIIFRYYAMGWYRQAPGKERELVAAISRGGSTYYADSVKGRFTISRDNAKNTVYLQMNSLKPEDTAVYYCAATSYRRTGYNYWGQGTQVTVSS”, the “polyreactivity (PSR sort gate)” value was “high polyreactivity”.
For “QVQLVESGGGLVQAGGSLRLSCAASGIIFRYYAMGWYRQAPGKERELVAGISYRGGSTYYADSVKGRFTISRDNAKNTVYLQMNSLKPEDTAVYYCAAVVYPRNYWGQGTQVTVSS”, the “polyreactivity (PSR sort gate)” value was “high polyreactivity”.
In the case of “QVQLVESGGGLVQAGGSLRLSCAASGIIFRYYAMGWYRQAPGKERELVASITARSGSTYYADSVKGRFTISRDNAKNTVYLQMNSLKPEDTAVYYCAKSGKPARYYYWGQGTQVTVSS”, the “polyreactivity (PSR sort gate)” value was “high polyreactivity”.
In the case of “QVQLVESGGGLVQAGGSLRLSCAASGIIFRYYAMGWYRQAPGKERELVATITIGGRTNYADSVKGRFTISRDNAKNTVYLQMNCLKPEDTAVYYCASRVYKYGSVYHRYDYWGQGTQVTVSS”, the “polyreactivity (PSR sort gate)” value was “high polyreactivity”.
In the case of “QVQLVESGGGLVQAGGSLRLSCAASGIIFRYYVMGWYRQAPGKERELVAAISWSGGSTYYADSVKGRFTISRDNAKNTVYLQMNSLKPEDTAVYYCAASRGILASEFGYWGQGTQVTVSS”, the “polyreactivity (PSR sort gate)” value was “high polyreactivity”.
In the case of “QVQLVESGGGLVQAGGSLRLSCAASGIIFSGYAMGWYRQAPGKERELVAAISSRGGGTYYADSVKGRFTISRDNAKNTVYLQMNSLKPEDTAVYYCNRVAFTYNYWGQGTQVTVSS”, the “polyreactivity (PSR sort gate)” value was “high polyreactivity”.
In the case of “QVQLVESGGGLVQAGGSLRLSCAASGIIFSGYAMGWYRQAPGKERELVAAITWGGGSTYYADSVKGRFTISRDNAKNTVYLQMNSLKPEDTAVYYCAATWWYEHVRYYSWGQGTQVTVSS”, the “polyreactivity (PSR sort gate)” value was “high polyreactivity”.
With “QVQLVESGGGLVQAGGSLRLSCAASGIIFSIYVMGWYRQAPGKERELVAAISRSGGSTYYADSVKGRFTISRDNAKNTVYLQMNSLKPEDTAVYYCAKKPTSTYQPDSPRWSDYWGQGTQVTVSS” the “polyreactivity (PSR sort gate)” value was “high polyreactivity”.
In the case of “QVQLVESGGGLVQAGGSLRLSCAASGIIFSKYAMGWYRQAPGKERELVAAISWNGVSTYYADSVKGRFTISRDNAKNTVYLQMNSLKPEDTAVYYCAADTYRSRRISYYWGQGTQVTVSS”, the “polyreactivity (PSR sort gate)” value was “low polyreactivity”.
With “QVQLVESGGGLVQAGGSLRLSCAASGIIFSSYAMGWYRQAPGKERELVAAISRRSGSTYYADSVKGRFTISRDNAKNTVYLQMNSLKPEDTAVYYCNKLPGTPRSLATGDYWGQGTQVTVSS” the “polyreactivity (PSR sort gate)” value was “high polyreactivity”.
With “QVQLVESGGGLVQAGGSLRLSCAASGIIFSSYAMGWYRQAPGKERELVAAISTSGGRTYYADSVKGRFTISRDNAKNTVYLQMNSLKPKDTAVYYCAARYGYWGQGTQVTVSS” the “polyreactivity (PSR sort gate)” value was “high polyreactivity”.
For “QVQLVESGGGLVQAGGSLRLSCAASGIIFSTYAMGWYRQAPGKERELVAAISYGGGSTYYADSVKGRFTISRDNEKNTVYLQMNSLKPEDTAVYYCAADSYRAYYYWGQGTQVTVSS”, the “polyreactivity (PSR sort gate)” value was “high polyreactivity”.
For “QVQLVESGGGLVQAGGSLRLSCAASGIIFSWYAMGWYRQAPGKERELVATISSGAHTYYADSVKGRFTISRDNAKNTVYLQMNSLKPEDTAVYYCATTSYGYWFGYIPEVDYWGQGTQVTVSS”, the “polyreactivity (PSR sort gate)” value was “low polyreactivity”.
With “QVQLVESGGGLVQAGGSLRLSCAASGIIFSYYAMGCYRQAPGKERELVAAISWSGGSTYYADSVKGRFTISRDNAKNTVYLQMNSLKPEDTAVYYCAADDYLAYVYWGQGTQVTVSS” the “polyreactivity (PSR sort gate)” value was “high polyreactivity”.
For “QVQLVESGGGLVQAGGSLRLSCAASGIIFSYYAMGWYRQAPGKERELVAAISRSGARTSYADSVKGRFTISRDNAKNTVYLQMNSLKPEDTAVYYCAARTQGTRYRGEYWGQGTQVTVSS”, the “polyreactivity (PSR sort gate)” value was “high polyreactivity”.
For “QVQLVESGGGLVQAGGSLRLSCAASGIIFSYYAMGWYRQAPGKERELVAAITYSGGSTYYADSVKGRFTISRDNAKNTVYLQMNSLKPEDTAVYYCDAEDYYYYSWYEYSYYYWGQGTQVTVSS”, the “polyreactivity (PSR sort gate)” value was “high polyreactivity”.
In the case of “QVQLVESGGGLVQAGGSLRLSCAASGIIFTGNAMGWYRQAPGKERELVAGITGSGGNTYYADSVKGRFTISRDNAKNTVYLQMNSLKPEDTAVYYCAARRHIFLLIIWSGRVDYWGQGTQVTVSS”, the “polyreactivity (PSR sort gate)” value was “low polyreactivity”.
For “QVQLVESGGGLVQAGGSLRLSCAASGIIFTQNGMGWYRQAPGKERELVAAISWSAGGTYYADSVKGRFTISRYNAKNTVLLQMNSLKPEDTAVYYCNARVFNVFREFNSWGQGTQVTVSS”, the “polyreactivity (PSR sort gate)” value was “low polyreactivity”.
In the case of “QVQLVESGGGLVQAGGSLRLSCAASGIIFTRYVMGWYRQAPRKERELVAAISWSGGRTYYADSVKGRFTISRDNAKNTVYLQMNSLKPEDTAVYYCAAGIYQHAGGDYWGQGTQVTVSS”, the “polyreactivity (PSR sort gate)” value was “high polyreactivity”.
With “QVQLVESGGGLVQAGGSLRLSCAASGIIFTVYDMGWYRQPPGKERELVAAITWSGGSTYYADSVKGRFTISRDNAKNTVYLQMNSLKPEDTAVYYCIKVGRVWDVETDGDYDYWGQGTQVTVSS” the “polyreactivity (PSR sort gate)” value was “low polyreactivity”.
With “QVQLVESGGGLVQAGGSLRLSCAASGIIFTYYDMGWYRQAPGKERELVAGIDYSGTSTYYADSVKGRFTISRDNAKNTVYLQMNSLKPEDTAVYYCAAVPVWGGYFAGEYYYWGQGTQVTVSS” the “polyreactivity (PSR sort gate)” value was “high polyreactivity”.
For “QVQLVESGGGLVQAGGSLRLSCAASGIIFVKYARGWSRQAPGKERELVAAITSGGSTYYADSVKGRFTISRDNAKNTVYLQTNSLKPEDTAVYYCNARRNQYLAQYDYWGQGTQVTVSS”, the “polyreactivity (PSR sort gate)” value was “high polyreactivity”.
In the case of “QVQLVESGGGLVQAGGSLRLSCAASGIIFVRYTMGWYRQAPGKERELVAAISSSGGSTYYADSVKGRFTISRDNAKNTVYLQLNSLKPEDTAVYYCIAEIRDNNVGYDTDYDYWGQGSQVTVSS”, the “polyreactivity (PSR sort gate)” value was “high polyreactivity”.
With “QVQLVESGGGLVQAGGSLRLSCAASGIIFWHYAMGMYRQAPGKERELVADISRRGGSTYYADSVKGRFTISRDNAKNTVYLQINSLKPEDNAVYYCAARYHPGGYDSWGQGTQVTVSS” the “polyreactivity (PSR sort gate)” value was “low polyreactivity”.
In the case of “QVQLVESGGGLVQAGGSLRLSCAASGIIFWLYTMGWYRQAPGKERELVAAITSGGSTYYAESVKGRFTISRDNAKNTVYLQMNSLKPEDTAVYYCAAVSRAPGLRYDYWGQGTQVTVSS”, the “polyreactivity (PSR sort gate)” value was “high polyreactivity”.
For “QVQLVESGGGLVQAGGSLRLSCAASGIIFWRYAMGWYRQAPGKERELVASISSSGGRTYYADSVKGRFTISRDNAKNTVYLQMNSLKPEDTAVYYCAARGPYGYDLLYYWGQGTQVTVSS”, the “polyreactivity (PSR sort gate)” value was “high polyreactivity”.
With “QVQLVESGGGLVQAGGSLRLSCAASGIIFWYYAMGWYIQAPGKERELVAAFSSGGSTTYADSVKGRFTISRDNAKNTVYLQINSLKPEDTAVYYCAASVRGIRYDYWGQGTQVTVSS” the “polyreactivity (PSR sort gate)” value was “low polyreactivity”.
With “QVQLVESGGGLVQAGGSLRLSCAASGIIFWYYAMGWYRQAPGKERELVAAISRGGTTYYADSVKGRFTISRDNAKNTVYLQMNSLKPEDTAVYYCAAGVRYRLTRYFYPDFDYWGQGTQVTVSS” the “polyreactivity (PSR sort gate)” value was “high polyreactivity”.
In the case of “QVQLVESGGGLVQAGGSLRLSCAASGIIFYAYAMGWYRQAPGKETELVAAITFSAVSTNYADSVKGRFTISRDYAKNTVYLQMNSLKPEDTAVYYCAAEAYKHGVWDYDYWGQGTQVTVSS”, the “polyreactivity (PSR sort gate)” value was “low polyreactivity”.
With “QVQLVESGGGLVQAGGSLRLSCAASGIIFYAYVMGWYRQAPGKERELVAAITVSGGSTYYADSVKGRFTISRDNAKNTVYLQMNSLKPEDTAVYYCAADWNFYQRTFDSWGQGTQVTVSS” the “polyreactivity (PSR sort gate)” value was “low polyreactivity”.
In the case of “QVQLVESGGGLVQAGGSLRLSCAASGIIFYDYAMGWYRQAPGKERELVAAISKRGGSTYYADSVKGRFTISRDNAKNTVYLQMNSLKPEDTAVYYCAAKYYRYGDPDRYDYWGQGTQVTVSS”, the “polyreactivity (PSR sort gate)” value was “high polyreactivity”.
For “QVQLVESGGGLVQAGGSLRLSCAASGIIFYDYAMGWYRQAPGKERELVATITRGGGTKYADSVKGRFTISRDNAKNTVYLQMNSLKQEDTAVYYCAADSHGDYEGDYWGQGTQVTVSS”, the “polyreactivity (PSR sort gate)” value was “low polyreactivity”.
In the case of “QVQLVESGGGLVQAGGSLRLSCAASGIIFYFYAMGWYRQAPGKERELVAAITSSGGSTYYADSVKGRFTISRDNAKNTVYLQMNSLKPEDTAVYYCAADSLHGRKFRGVDYWGQGTQVTVSS”, the “polyreactivity (PSR sort gate)” value was “low polyreactivity”.
